Article PMC5503682

Tests used:
[1] = molecular target: SP6 tailspike protein gp46 (bacteriophage SP6); test: cryo-EM structure
[2] = molecular target: SP6 tailspike protein gp47 (bacteriophage SP6); test: cryo-EM structure

| Substance | stoichiometry N [1] | stoichiometry N [2] |
| --- | --- | --- |
| SP6 tailspike protein gp46 (natural protein) | 3 |  |
| SP6 tailspike protein gp47 (natural protein) |  | 3 |
